Reference: the supplement of paper PMC9876800

Test system: peptide library, one residue held at a place counted from the S/T acceptor
Assay: relative phosphorylation of the sub-library (ratio to the mean residue at this position); higher = residue favoured
How it was run: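 Human or orthologue kinase constructs, purified and recombinant, were incubated under kinase-specific conditions in 384-well plates with biotinylated degenerate peptide sub-libraries. Each sub-library fixed one residue at one position around a central Ser/Thr. Incubations lasted 90 min with peptides at 50 μM and 50 μM ATP spiked with γ-32P-ATP, after which spots on streptavidin membranes were phosphorimaged and quantified by densitometry. Relative sub-library phosphorylation is a ratio to the mean residue at that position.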

CDK17, construct: Full length, human, sequence (Q00537 whole entry, looked up): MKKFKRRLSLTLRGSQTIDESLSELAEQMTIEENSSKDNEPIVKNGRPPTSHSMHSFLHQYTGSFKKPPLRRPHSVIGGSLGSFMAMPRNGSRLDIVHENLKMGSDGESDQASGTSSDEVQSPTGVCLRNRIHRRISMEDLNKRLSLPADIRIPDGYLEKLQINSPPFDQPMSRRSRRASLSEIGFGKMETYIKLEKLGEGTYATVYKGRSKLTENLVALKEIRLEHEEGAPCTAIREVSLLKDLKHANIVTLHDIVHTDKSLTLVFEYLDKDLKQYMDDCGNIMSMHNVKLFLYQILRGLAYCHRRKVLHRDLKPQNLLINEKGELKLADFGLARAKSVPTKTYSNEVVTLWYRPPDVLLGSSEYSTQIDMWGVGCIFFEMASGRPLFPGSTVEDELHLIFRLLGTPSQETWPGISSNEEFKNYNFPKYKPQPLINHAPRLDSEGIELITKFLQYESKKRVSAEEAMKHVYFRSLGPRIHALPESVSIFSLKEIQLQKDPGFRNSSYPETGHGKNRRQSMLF

CDK2, construct: Full length, human (from UniProt P24941)
relative phosphorylation
Details | at +1 | at +2 | at +3 | at +4 | at -1 | at -2 | at -3 | at -4 | at -5
A fixed | 0.422 | 0.748 | 0.457 | 0.579 | 0.947 | 0.875 | 1.06 | 1.02 | 1.03
D fixed | 0.304 | 0.611 | 0.279 | 0.735 | 1.08 | 0.754 | 0.692 | 1.01 | 1.09
E fixed | 0.304 | 0.544 | 0.265 | 0.591 | 0.846 | 0.701 | 0.887 | 1.08 | 0.998
F fixed | 0.365 | 0.976 | 0.438 | 0.837 | 1.1 | 1.29 | 0.928 | 1.08 | 1.01
G fixed | 0.923 | 0.664 | 0.497 | 1.13 | 1.39 | 0.891 | 1.6 | 1.03 | 0.824
H fixed | 0.367 | 1.28 | 0.871 | 1.04 | 0.879 | 1.21 | 1.3 | 1.21 | 1.17
I fixed | 0.409 | 0.781 | 0.325 | 0.92 | 0.428 | 0.804 | 0.877 | 0.911 | 0.684
K fixed | 0.439 | 1.91 | 8.59 | 1.62 | 1.01 | 0.798 | 0.839 | 1.02 | 1.17
L fixed | 0.384 | 0.947 | 0.358 | 1.12 | 1.02 | 1.27 | 0.88 | 0.911 | 0.787
M fixed | 0.407 | 1.09 | 0.405 | 1.3 | 1.02 | 1.27 | 0.895 | 0.814 | 0.8
N fixed | 0.402 | 1.08 | 0.524 | 1.06 | 1.01 | 0.963 | 0.91 | 0.888 | 0.813
P fixed | 10.1 | 0.384 | 0.626 | 0.731 | 0.7 | 1.3 | 0.804 | 0.589 | 1.1
Q fixed | 0.499 | 1.47 | 0.665 | 1.17 | 1.37 | 1.09 | 1.18 | 1.18 | 1.13
R fixed | 0.494 | 1.94 | 1.49 | 0.939 | 1.3 | 0.684 | 0.88 | 0.829 | 1.06
V fixed | 0.516 | 1.08 | 0.392 | 0.977 | 0.643 | 0.892 | 1.04 | 0.907 | 1
W fixed | 0.326 | 0.667 | 0.429 | 1.32 | 1.34 | 1.19 | 1.2 | 1.4 | 1.13
Y fixed | 0.33 | 0.82 | 0.393 | 0.935 | 0.92 | 1.01 | 1.03 | 1.1 | 1.19
pThr fixed | 1.22 | 0.953 | 1.31 | 0.611 | 0.373 | 0.917 | 1.01 | 0.787 | 0.965
pTyr fixed | 2.21 | 0.603 | 1.1 | 0.825 | 0.766 | 1.63 | 1.13 | 0.938 | 0.898

CDK17, construct: Full length, human (from UniProt Q00537)
relative phosphorylation
Details | at +1 | at +2 | at +3 | at +4 | at -1 | at -2 | at -3 | at -4 | at -5
A fixed | 0.203 | 0.683 | 0.739 | 1 | 0.979 | 1.25 | 0.977 | 0.99 | 1.07
D fixed | 0.116 | 0.603 | 0.323 | 0.54 | 0.654 | 0.496 | 0.806 | 0.95 | 0.96
E fixed | 0.109 | 0.412 | 0.294 | 0.427 | 0.49 | 0.585 | 0.902 | 1.02 | 0.845
F fixed | 0.152 | 0.697 | 0.959 | 0.828 | 0.644 | 0.742 | 0.666 | 0.802 | 0.856
G fixed | 0.781 | 0.865 | 0.862 | 1.86 | 1.93 | 0.898 | 1.62 | 1.19 | 1.01
H fixed | 0.152 | 1.16 | 0.66 | 1.14 | 0.801 | 0.831 | 0.907 | 0.98 | 1.18
I fixed | 0.157 | 0.826 | 1.48 | 0.823 | 0.251 | 0.872 | 0.68 | 0.836 | 0.806
K fixed | 0.236 | 2.09 | 0.904 | 1.32 | 1.61 | 0.701 | 0.945 | 1.34 | 1.49
L fixed | 0.17 | 1.03 | 2.01 | 0.797 | 0.689 | 0.962 | 0.675 | 0.779 | 0.98
M fixed | 0.17 | 1.02 | 1.99 | 0.99 | 1.06 | 1.13 | 0.881 | 0.822 | 0.861
N fixed | 0.174 | 1.15 | 0.854 | 0.987 | 1.03 | 1 | 1.21 | 1.37 | 1.02
P fixed | 13.6 | 0.758 | 1.66 | 0.889 | 1.69 | 3.2 | 2.12 | 1.41 | 1.06
Q fixed | 0.195 | 1 | 0.962 | 0.962 | 1.28 | 0.893 | 1.03 | 0.933 | 0.834
R fixed | 0.191 | 1.92 | 0.783 | 1.52 | 1.51 | 0.875 | 1.13 | 0.924 | 1.01
V fixed | 0.222 | 0.863 | 1.07 | 0.77 | 0.403 | 0.859 | 0.782 | 0.605 | 0.698
W fixed | 0.181 | 0.879 | 0.791 | 1.09 | 0.999 | 0.887 | 0.855 | 1.14 | 1.19
Y fixed | 0.149 | 1.05 | 0.65 | 1.06 | 0.97 | 0.824 | 0.818 | 0.907 | 1.12
pThr fixed | 0.514 | 0.699 | 0.939 | 0.451 | 0.438 | 0.909 | 1.06 | 1.04 | 0.832
pTyr fixed | 0.707 | 0.491 | 0.903 | 0.492 | 0.452 | 0.788 | 0.883 | 0.7 | 0.88
